Here are results for five molecules from patent US20250074974A1 (KANAPH THERAPEUTICS, published 2025).

The target in this assay is T1, human VEGF165 protein (human, UniProt P15692-4 27-191).
T1 construct: Immobilised on the ELISA plate
Kind of assay: ELISA, human VEGF165 immobilised on plate. From the text:
Next, the anti-human immunoglobulin G antibody and the anti-horseradish peroxidase (HRP) antibody were sequentially allowed to bind.

T1 sequence (P15692 other isoform, or with tags, fused parts or gaps limits assumed): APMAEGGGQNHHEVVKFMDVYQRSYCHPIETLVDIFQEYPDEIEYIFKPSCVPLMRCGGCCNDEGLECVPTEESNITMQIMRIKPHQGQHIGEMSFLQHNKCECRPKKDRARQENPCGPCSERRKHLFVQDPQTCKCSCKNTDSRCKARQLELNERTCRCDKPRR

B1: PRO237 (bispecific antibody, human IgG1, kappa, L234A L235A, N297G)
heavy: EVQLVQSGAEVKKPGASVKVSCKASGYTFTGYYINWVRQAPGQGLEWMGIISPNQGTTGYAQKFQGRVTMTRDTSISTAYMELSSLRSEDTAVYYCARGNYDHLDYWGQGTLVTVSSASTKGPSVFPLAPSSKSTSGGTAALGCLVKDYFPEPVTVSWNSGALTSGVHTFPAVIQSSGLYSLSSVVTVPSSSLGTQTYICNVNHKPSNTKVDKRVEPKSCDKTHTCPPCPAPEAAGGPSVFLFPPKPKDTLMISRTPEVTCVVVAVSHEDPEVKFNWYVDGVEVHNAKTKPREEQYGSTYRVVSVLTVLHQDWLNGKEYKCKVSNKALPAPIEKTISKAKGQPREPQVYTLPPSREEMTKNQVSLTCLVKGFYPSDIAVEWESNGQPENNYKTTPPVLDSDGSFFLYSKLTVDKSRWQQGNVFSCSVMHEALHNHYTQKSLSLSPGGGGGSGGGGSSDTGRPFVEMYSEIPEIIHMTEGRELVIPCRVTSPNITVTLKKFPLDTLIPDGKRIIWDSRKGFIISNATYKEIGLLTCEATVNGHLYKTNYLTHRQTNTIIDVVLSPSHGIELSVGEKLVLNCTARTELNVGIDFNWEYPSSKHQHKKLVNRDLKTQSGSEMKKFLSTLTIDGVTRSDQGLYTCAASSGLMTKKNSTFVRVHEK
light: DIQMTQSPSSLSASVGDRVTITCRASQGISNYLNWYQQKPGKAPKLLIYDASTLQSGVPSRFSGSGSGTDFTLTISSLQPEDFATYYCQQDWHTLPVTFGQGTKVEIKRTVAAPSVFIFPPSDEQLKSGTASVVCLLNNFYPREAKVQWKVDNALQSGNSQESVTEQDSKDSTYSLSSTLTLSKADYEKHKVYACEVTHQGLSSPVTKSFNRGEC
notes: Purified as a fusion protein dimer
As for B1, the binding result was “binds”.

B2: PRO238 (bispecific antibody)
heavy: EVQLVESGGGLVQPGGSLRLSCAASGFSFTSSSVSWVRQAPGKGLEWVGLIYPYNGFNYYADSVKGRFTISADTSKNTAYLQMNSLRAEDTAVYYCARNALYGSGGYYAMDYWGQGTLVTVSSASTKGPSVFPLAPSSKSTSGGTAALGCLVKDYFPEPVTVSWNSGALTSGVHTFPAVIQSSGLYSLSSVVTVPSSSLGTQTYICNVNHKPSNTKVDKRVEPKSCDKTHTCPPCPAPEAAGGPSVFLFPPKPKDTLMISRTPEVTCVVVAVSHEDPEVKFNWYVDGVEVHNAKTKPREEQYGSTYRVVSVLTVLHQDWLNGKEYKCKVSNKALPAPIEKTISKAKGQPREPQVYTLPPSREEMTKNQVSLTCLVKGFYPSDIAVEWESNGQPENNYKTTPPVLDSDGSFFLYSKLTVDKSRWQQGNVFSCSVMHEALHNHYTQKSLSLSPGGGGGSGGGGSSDTGRPFVEMYSEIPEIIHMTEGRELVIPCRVTSPNITVTLKKFPLDTLIPDGKRIIWDSRKGFIISNATYKEIGLLTCEATVNGHLYKTNYLTHRQTNTIIDVVLSPSHGIELSVGEKLVLNCTARTELNVGIDFNWEYPSSKHQHKKLVNRDLKTQSGSEMKKFLSTLTIDGVTRSDQGLYTCAASSGLMTKKNSTFVRVHEK
light: DIQMTQSPSSLSASVGDRVTITCRASQDVSTAVAWYQQKPGKAPKLLIYSASFLYSGVPSRFSGSGSGTDFTLTISSLQPEDFATYYCQQSYATLPTFEQGTKVEIKRTVAAPSVFIFPPSDEQLKSGTASVVCLLNNFYPREAKVQWKVDNALQSGNSQESVTEQDSKDSTYSLSSTLTLSKADYEKHKVYACEVTHQGLSSPVTKSFNRGEC
notes: as for B1
On to B2, for which the binding result was “binds”.

B3: PRO241 (bispecific antibody, IgG1)
chain: SDTGRPFVEMYSEIPEIIHMTEGRELVIPCRVTSPNITVTLKKFPLDTLIPDGKRIIWDSRKGFIISNATYKEIGLLTCEATVNGHLYKTNYLTHRQTNTIIDVVLSPSHGIELSVGEKLVLNCTARTELNVGIDFNWEYPSSKHQHKKLVNRDLKTQSGSEMKKFLSTLTIDGVTRSDQGLYTCAASSGLMTKKNSTFVRVHEKGGGGSDKTHTCPPCPAPEAAGGPSVFLFPPKPKDTLMISRTPEVTCVVVAVSHEDPEVKFNWYVDGVEVHNAKTKPREEQYGSTYRVVSVLTVLHQDWLNGKEYKCKVSNKALPAPIEKTISKAKGQPREPQVYTLPPSREEMTKNQVSLTCLVKGFYPSDIAVEWESNGQPENNYKTTPPVLDSDGSFFLYSKLTVDKSRWQQGNVFSCSVMHEALHNHYTQKSLSLSPGGGGGSGGGGSGGGGSEVQLVQSGAEVKKPGASVKVSCKASGYTFTGYYINWVRQAPGQGLEWMGIISPNQGTTGYAQKFQGRVTMTRDTSISTAYMELSSLRSEDTAVYYCARGNYDHLDYWGQGTLVTVSSGGGGSGGGGSGGGGSGGGGSDIQMTQSPSSLSASVGDRVTITCRASQGISNYLNWYQQKPGKAPKLLIYDASTLQSGVPSRFSGSGSGTDFTLTISSLQPEDFATYYCQQDWHTLPVTFGQGTKVEIK
notes: as for B1
As to B3, the binding result is on record as “binds”.

B4: PRO236 (bispecific antibody, human IgG1, kappa, L234A L235A, N297G)
heavy: EVQLVESGGGLVQPGGSLRLSCAASGFTFSSYWMTWVRQAPGKGLEWVSSIKIKPDGYAASVKGRFTISRDNSKNTLYLQMNSLRAEDTAVYYCARLFYQYFARMDYWGQGTLVTVSSASTKGPSVFPLAPSSKSTSGGTAALGCLVKDYFPEPVTVSWNSGALTSGVHTFPAVLQSSGLYSLSSVVTVPSSSLGTQTYICNVNHKPSNTKVDKRVEPKSCDKTHTCPPCPAPEAAGGPSVFLFPPKPKDTLMISRTPEVTCVVVAVSHEDPEVKFNWYVDGVEVHNAKTKPREEQYGSTYRVVSVLTVLHQDWLNGKEYKCKVSNKALPAPIEKTISKAKGQPREPQVYTLPPSREEMTKNQVSLTCLVKGFYPSDIAVEWESNGQPENNYKTTPPVLDSDGSFFLYSKLTVDKSRWQQGNVFSCSVMHEALHNHYTQKSLSLSPGGGGGSGGGGSSDTGRPFVEMYSEIPEIIHMTEGRELVIPCRVTSPNITVTLKKFPLDTLIPDGKRIIWDSRKGFIISNATYKEIGLLTCEATVNGHLYKTNYLTHRQTNTIIDVVLSPSHGIELSVGEKLVLNCTARTELNVGIDFNWEYPSSKHQHKKLVNRDLKTQSGSEMKKFLSTLTIDGVTRSDQGLYTCAASSGLMTKKNSTFVRVHEK
light: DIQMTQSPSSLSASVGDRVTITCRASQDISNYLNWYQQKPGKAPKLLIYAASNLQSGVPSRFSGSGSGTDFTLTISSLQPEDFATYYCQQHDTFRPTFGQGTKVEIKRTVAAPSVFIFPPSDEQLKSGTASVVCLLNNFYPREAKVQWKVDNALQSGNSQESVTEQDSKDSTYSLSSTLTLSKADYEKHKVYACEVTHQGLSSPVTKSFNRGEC
notes: as for B1
For the molecule B4, the binding result was “binds”.

B5: PRO242 (bispecific antibody, IgG1)
chain: SDTGRPFVEMYSEIPEIIHMTEGRELVIPCRVTSPNITVTLKKFPLDTLIPDGKRIIWDSRKGFIISNATYKEIGLLTCEATVNGHLYKTNYLTHRQTNTIIDVVLSPSHGIELSVGEKLVLNCTARTELNVGIDFNWEYPSSKHQHKKLVNRDLKTQSGSEMKKFLSTLTIDGVTRSDQGLYTCAASSGLMTKKNSTFVRVHEKGGGGSDKTHTCPPCPAPEAAGGPSVFLFPPKPKDTLMISRTPEVTCVVVAVSHEDPEVKFNWYVDGVEVHNAKTKPREEQYGSTYRVVSVLTVLHQDWLNGKEYKCKVSNKALPAPIEKTISKAKGQPREPQVYTLPPSREEMTKNQVSLTCLVKGFYPSDIAVEWESNGQPENNYKTTPPVLDSDGSFFLYSKLTVDKSRWQQGNVFSCSVMHEALHNHYTQKSLSLSPGGGGGSGGGGSGGGGSEVQLVESGGGLVQPGGSLRLSCAASGFSFTSSSVSWVRQAPGKGLEWVGLIYPYNGFNYYADSVKGRFTISADTSKNTAYLQMNSLRAEDTAVYYCARNALYGSGGYYAMDYWGQGTLVTVSSGGGGSGGGGSGGGGSGGGGSDIQMTQSPSSLSASVGDRVTITCRASQDVSTAVAWYQQKPGKAPKLLIYSASFLYSGVPSRFSGSGSGTDFTLTISSLQPEDFATYYCQQSYATLPTFEQGTKVEIK
notes: as for B1
Take B5: the binding result was “binds”.
